According to PMC11479839:
Where two headings read alike, the source gives them in different places.

B1: 1Ebox (dsDNA)
DNA 1: AGCTTAACTGACCACGTGGTCAACTA
DNA 2: TAGTTGACCACGTGGTCAGTTAAGCT
B2: 1 NC Ebox CATATG (table: NC Ebox-TC; text: NCE-TA) (dsDNA)
DNA 1: AGCTTAACTGACCATATGGTCAACTA
DNA 2: TAGTTGACCATATGGTCAGTTAAGCT
B3: 1 NC Ebox CATCTG (table: NC Ebox-TA; text: NCE-TC) (dsDNA)
DNA 1: AGCTTAACTGACCATCTGGTCAACTA
DNA 2: TAGTTGACCAGATGGTCAGTTAAGCT

How the values were obtained:
N-myc;MAX [1] = molecular target: T1, N-myc;MAX (human;human, UniProt P04198;P61244 1-464;1-160, |); test: fluorescence anisotropy
N-myc;MAX [2] = molecular target: T1, N-myc;MAX; test: fluorescence anisotropy; remark: listed apart in the source

T1 sequence (P04198 whole entry, chain 1 of 2): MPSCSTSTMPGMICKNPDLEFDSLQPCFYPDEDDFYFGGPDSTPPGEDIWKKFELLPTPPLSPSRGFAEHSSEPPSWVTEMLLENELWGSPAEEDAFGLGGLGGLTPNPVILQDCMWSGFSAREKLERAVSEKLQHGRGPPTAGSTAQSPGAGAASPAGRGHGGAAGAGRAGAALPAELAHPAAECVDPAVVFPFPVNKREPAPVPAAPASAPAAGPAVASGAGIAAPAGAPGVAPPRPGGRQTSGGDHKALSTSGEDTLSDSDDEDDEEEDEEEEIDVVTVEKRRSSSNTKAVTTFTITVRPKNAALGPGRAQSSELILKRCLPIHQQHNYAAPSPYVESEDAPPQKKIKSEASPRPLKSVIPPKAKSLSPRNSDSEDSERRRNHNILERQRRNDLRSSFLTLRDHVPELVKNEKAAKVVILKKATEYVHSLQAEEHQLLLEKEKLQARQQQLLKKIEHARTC
T1 sequence (P61244 whole entry, chain 2 of 2): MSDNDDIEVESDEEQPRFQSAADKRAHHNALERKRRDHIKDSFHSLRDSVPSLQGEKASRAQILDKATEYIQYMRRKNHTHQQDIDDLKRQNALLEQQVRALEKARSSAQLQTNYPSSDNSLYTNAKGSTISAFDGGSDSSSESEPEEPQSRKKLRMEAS

Binder	Kd (N-myc;MAX [1]) [nM]	Kd (N-myc;MAX [2]) [nM]
B1	~150	
B2		~735
B3		~655
